Reference: patent US20040127421A1 (KIMBERLY CLARK WORLDWIDE, published 2004)

B1: 10-mer (SEQ ID NO:13) NYNFFPRKPK (peptide)
peptide: NYNFFPRKPK
B2: 9-mer (SEQ ID NO:12) PRCGNPDVA (peptide)
peptide: PRCGNPDVA
B3: 19-mer (SEQ ID NO:11) PRCGNPDVANYNFFPRKPK (peptide)
peptide: H-PRCGNPDVANYNFFPRKPK-OH
notes: Synthesized by Sigma-Genosys, >95% pure by RP-HPLC; Free termini; the acetylated/amidated Ac-19-mer was used only in migration assays; also called 19mer peptide

Experiments:
Active MMP-9 enzyme [1] = molecular target: T1, Active MMP-9 enzyme (UniProt P14780 107-707, limits assumed); assay: enzyme inhibition, FRET peptide substrate
T1 construct: mature; also called matrix metalloproteinase-9; mature MMP-9
Method: (§1) The second assay utilized the technique of fluorescence resonance energy transfer (FRET). The substrate peptide (Calbiochem) of seven amino acids was coupled to a carboxyl terminal dinitrophenyl acceptor, and an amino terminal 2-aminobenzo-anthraniloyl (Abz) moiety donor. […] The protein mixture was added to the fluorescent peptide substrate, and was quickly mixed. Fluorescence intensity as a function of time was measured with a Dynex MFX fluorescence microtiter plate reader. Fluorescence intensity was related back to moles of peptide cleaved by producing a standard curve with an Abz containing non-FRET peptide.
(§2) These assays utilized FRET peptides that incorporated specific MMP cleavage sites into their sequence.

Active MMP-9 enzyme [2] = molecular target: T1, Active MMP-9 enzyme; assay: enzyme inhibition, fluoresceinated collagen substrate, Dixon plot
Method: Two enzymatic assays were performed. The first assay measured the enzymatic hydrolysis of fluoresceinated collagen by MMP-9 as a function of time. […] The protein mixture was added to the collagen substrate, and was quickly mixed. Fluorescence emission intensity at 520 nm was measured as a function of time (excitation wavelength 495 nm) in a Shimadzu RF5301 fluorometer (Lakowicz, 1983). The fluorescein release assay was used to determine the inhibitory constant (Ki) of the peptide inhibitor ([I]) according to Segel (1993) via the use of Dixon plots (1/v vs. [I]), such that: […]

Active MMP-9 enzyme [3] = molecular target: T1, Active MMP-9 enzyme; assay: isothermal titration calorimetry, 1 mM peptide into 20 µM MMP-9, 20 mM cacodylate pH 6.8, 20 mM NaCl
Method: Isothermal titration calorimetry (ITC) was performed with a VP-ITC instrument from MicroCal, Inc. Titrations were carried out by injecting 5 μL of an inhibitor peptide solution (at concentration ranges from 0.5 mM to 2.0 mM) into the 1.4 mL stirred reaction cell. MMP-9 ranged in concentration from 50 to 80 μM in the cell. Both the inhibitor and the enzyme were in 20 mM sodium cacodylate (pH 5.5-7.0), 40 mM NaCl, or 20 mM Tris-HCl (pH 7.0-7.5), 40 mM NaCl. Titrations were conducted between 20° C. and 40° C. Typical experimental conditions for the titrations were a 10 second injection period followed by a 240 second delay between injections for a total of 40 injections. Blank titrations of inhibitor peptide into buffer were performed in order to correct for heats of dilution and mixing.
The peptide was dissolved in 20 mM cacodylate (pH 6.8), 20 mM NaCl at a final concentration of 1 mM. MMP-9 was dialyzed into the same buffer at a final concentration of 20 μM. A series of standard injections were performed as described above.

MMP-3 = molecular target: T2, MMP-3 (UniProt P08254 100-477, limits assumed); assay: enzyme inhibition, FRET peptide substrate
T2 construct: also called matrix metalloproteinase-3
Method: as §1, §2

MMP-7 = molecular target: T3, MMP-7 (UniProt P09237 95-267, limits assumed); assay: enzyme inhibition, FRET peptide substrate
T3 construct: also called matrix metalloproteinase-7
T3 sequence (looked up): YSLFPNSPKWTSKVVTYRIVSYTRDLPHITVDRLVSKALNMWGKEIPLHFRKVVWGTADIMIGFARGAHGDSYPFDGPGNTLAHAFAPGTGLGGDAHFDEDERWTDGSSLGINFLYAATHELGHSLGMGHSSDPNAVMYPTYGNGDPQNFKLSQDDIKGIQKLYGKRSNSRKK
Method: as §1, §2

Active MMP-9 enzyme [4] = molecular target: T1, Active MMP-9 enzyme; assay: SPR (BIACore-X), calculated from ka/kd
Method: MMP-9 at a concentration of 75 ng/μL was coupled to the activated surface at a flow rate of 10 μL per minute for ten minutes. The final surface was inactivated by flowing 1 M ethanolamine-HCl at a rate of 10 μL per minute for five minutes over the sensor surface. […] The association and dissociation phases of the binding isotherms were smoothed by an automated FFT routine prior to modeling rate constants. Binding isotherms were evaluated by simultaneously fitting the forward (kₐ) and reverse (kd) rate constants to:
There was an observed bulk transport effect of approximately 100 response units at the start of the dissociation phase that was not modeled.

MMP-2 = molecular target: T4, MMP-2 (Homo sapiens (Human), UniProt P08253 110-660); assay: isothermal titration calorimetry, 1 mM 19-mer into 20 µM MMP-2, 20 mM cacodylate pH 6.8, 10 mM NaCl, 25° C.
T4 construct: an active enzyme without signal and propeptide is likely; also called matrix metalloproteinase-2
T4 sequence: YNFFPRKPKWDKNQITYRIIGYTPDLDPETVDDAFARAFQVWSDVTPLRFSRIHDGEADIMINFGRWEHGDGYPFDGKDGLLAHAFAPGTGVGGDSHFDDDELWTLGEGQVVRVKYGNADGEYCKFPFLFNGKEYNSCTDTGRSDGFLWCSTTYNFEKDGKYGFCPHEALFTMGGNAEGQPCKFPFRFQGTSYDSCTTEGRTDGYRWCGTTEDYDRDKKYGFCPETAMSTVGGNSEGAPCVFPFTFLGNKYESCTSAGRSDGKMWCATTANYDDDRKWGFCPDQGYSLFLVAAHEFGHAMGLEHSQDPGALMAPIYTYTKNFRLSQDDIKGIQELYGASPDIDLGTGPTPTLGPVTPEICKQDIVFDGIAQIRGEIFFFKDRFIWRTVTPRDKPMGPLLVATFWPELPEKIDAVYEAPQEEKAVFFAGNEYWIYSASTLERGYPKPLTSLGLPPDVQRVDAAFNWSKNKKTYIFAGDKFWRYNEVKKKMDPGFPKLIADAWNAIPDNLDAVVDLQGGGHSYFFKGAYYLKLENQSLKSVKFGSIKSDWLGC

T1 sequence (P14780 107-707 limits assumed): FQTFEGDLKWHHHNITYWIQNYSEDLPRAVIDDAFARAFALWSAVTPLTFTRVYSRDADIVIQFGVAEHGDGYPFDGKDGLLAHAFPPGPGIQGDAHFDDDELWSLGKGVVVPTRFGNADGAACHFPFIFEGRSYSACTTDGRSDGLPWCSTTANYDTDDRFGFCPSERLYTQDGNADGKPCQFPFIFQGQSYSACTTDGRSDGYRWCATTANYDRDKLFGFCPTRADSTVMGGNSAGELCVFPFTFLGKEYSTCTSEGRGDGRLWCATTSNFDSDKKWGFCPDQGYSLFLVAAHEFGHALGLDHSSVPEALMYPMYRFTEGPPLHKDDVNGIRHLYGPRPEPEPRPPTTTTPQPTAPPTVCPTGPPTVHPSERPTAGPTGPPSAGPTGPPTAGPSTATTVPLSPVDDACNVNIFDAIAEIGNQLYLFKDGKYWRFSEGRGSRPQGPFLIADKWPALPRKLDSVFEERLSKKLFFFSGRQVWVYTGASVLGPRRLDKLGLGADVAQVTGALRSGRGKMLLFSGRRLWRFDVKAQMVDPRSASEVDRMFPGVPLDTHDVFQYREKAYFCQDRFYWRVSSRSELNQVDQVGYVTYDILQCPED
T2 sequence (P08254 100-477 limits assumed): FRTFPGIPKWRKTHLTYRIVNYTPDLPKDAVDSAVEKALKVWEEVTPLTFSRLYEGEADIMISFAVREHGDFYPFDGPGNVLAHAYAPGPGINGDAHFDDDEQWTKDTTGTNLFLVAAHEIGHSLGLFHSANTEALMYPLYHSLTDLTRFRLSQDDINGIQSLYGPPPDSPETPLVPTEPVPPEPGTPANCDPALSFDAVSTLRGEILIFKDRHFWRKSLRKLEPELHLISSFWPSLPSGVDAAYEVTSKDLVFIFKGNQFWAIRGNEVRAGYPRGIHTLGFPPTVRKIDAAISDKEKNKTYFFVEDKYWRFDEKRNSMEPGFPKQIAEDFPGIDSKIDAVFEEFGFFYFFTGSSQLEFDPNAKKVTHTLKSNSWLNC

Binder	Ki (Active MMP-9 enzyme [1])	Ki (Active MMP-9 enzyme [2])	Ka (Active MMP-9 enzyme [3])	Stoichiometry (Active MMP-9 enzyme [3])	ΔH (Active MMP-9 enzyme [3])	ΔS (Active MMP-9 enzyme [3])	Ki (MMP-3)	Ki (MMP-7)	Ka (Active MMP-9 enzyme [4])	Ka (MMP-2)	Stoichiometry (MMP-2)	ΔH (MMP-2)	ΔS (MMP-2)
B1	328 µM	221 µM	–	–	–	–	–	–	–	–	–	–	–
B2	233 µM	186 µM	–	–	–	–	–	–	–	–	–	–	–
B3	45.2 µM	30.3 µM	1.65e+06 M⁻¹	0.975	-26.1 kcal/mol	-11.6 cal mol^-1 K^-1	6.4 µM	22.8 µM	5.3e+06 M⁻¹	2.4e+06 M⁻¹	0.99	-15.4 kcal/mol	-21.1 cal mol^-1 K^-1
